{"source": "patent US20240228543"}
{"protein": "USP30 (protein) TERKKRRKGLVPGLVNLGNTCFMNSLLQGLSACPAFIRWLEEFTSQYSRDQKEPPSHQYLSLTLLHLLKALSCQEVTDDEVLDASCLLDVLRMYRWQISSFEEQDAHELFHVITSSLEDERDRQPRVTHLFDVHSLEQQSEITPKQITCRTRGSPHPTSNHWKSQHPFHGRLTSNMVCKHCEHQSPVRFDTFDSLSLSIPAATWGHPLTLDHCLHHFISSESVRDVVCDNCTKIEAKGTLNGEKVEHQRTTFVKQLKLGKLPQCLCIHLQRLSWSSHGTPLKRHEHVQFNEFLMMDIYKYHLLGHKPSQHNPKLNKNPGPTLELQDGPGAPTPVLNQPGAPKTQIFMNGACSPSLLPTLSAPMPFPLPVVPDYSSSTYLFRLMAVVVHHGDMHSGHFVTYRRSPPSARNPLSTSNQWLWVSDDTVRKASLQEVLSSSAYLLFYERVLSRMQHQSQECKSEE", "values": [{"measurement": "ubiquitin-AMC cleavage with 1 µM hD1", "setting": "hD1 cyclic peptide", "value": "only a very modest (˜15%) effect on USP30"}]}
{"protein": "yeast SAGA DUB module (Ubp8/Sgf11/Sgf73 1-105/Sus1), construct lacking the Avi tag, 6xHis tag cleaved (protein) chain 1: MSICPHIQQVFQNEKSKDGVLKTCNAARYILNHSVPKEKFLNTMKCGTCHEINSGATFMCLQCGFCGCWNHSHFLSHSKQIGHIFGINSNNGLLFCFKCEDYIGNIDLINDAILAKYWDDVCTKTMVPSMERRDGLSGLINMGSTCFMSSILQCLIHNPYFIRHSMSQIHSNNCKVRSPDKCFSCALDKIVHELYGALNTKQASSSSTSTNRQTGFIYLLTCAWKINQNLAGYSQQDAHEFWQFIINQIHQSYVLDLPNAKEVSRANNKQCECIVHTVFEGSLESSIVCPGCQNNSKTTIDPFLDLSLDIKDKKKLYECLDSFHKKEQLKDFNYHCGECNSTQDAIKQLGIHKLPSVLVLQLKRFEHLLNGSNRKLDDFIEFPTYLNMKNYCSTKEKDKHSENGKVPDIIYELIGIVSHKGTVNEGHYIAFCKISGGQWFKFNDSMVSSISQEEVLKEQAYLLFYTIRQVN chain 2: MTEETITIDSISNGILNNLLTTLIQDIVARETTQQQLLKTRYPDLRSYYFDPNGSLDINGLQKQQESSQYIHCENCGRDVSANRLAAHLQRCLSRGARR chain 3: MRSGDAEIKGIKPKVIEEYSLSQGSGPSNDSWKSLMSSAKDTPLQYDHMNRESLKKYFNPNAQLIEDPLDKPIQYRVCEKCGKPLALTAIVDHLENHCAGASGKS chain 4: MTMDTAQLKSQIQQYLVESGNYELISNELKARLLQEGWVDKVKDLTKSEMNINESTNFTQILSTVEPKALEMVSDSTRETVLKQIREFLEEIVDTQ", "values": [{"measurement": "Ub-AMC cleavage", "setting": "yD1 cyclic peptide", "value": "yD1 did not inhibit activity of the yeast DUB module"}, {"measurement": "Ub-AMC cleavage, 50 nM yeast DUB module with 2.5 µM yD1", "setting": "yD1 cyclic peptide", "value": "Rather than inhibition, yD1 produced a slight increase in cleavage rates"}]}
{"protein": "USP7 catalytic domain (protein) KKHTGYVGLKNQGATCYMNSLLQTLFFTNQLRKAVYMMPTEGDDSSKSVPLALQRVFYELQHSDKPVGTKKLTKSFGWETLDSFMQHDVQELCRVLLDNVENKMKGTCVEGTIPKLFRGKMVSYIQCKEVDYRSDRREDYYDIQLSIKGKKNIFESFVDYVAVEQLDGDNKYDAGEHGLQEAEKGVKFLTLPPVLHLQLMRFMYDPQTDQNIKINDRFEFPEQLPLDEFLQKTDPKDPANYILHAVLVHSGDNHGGHYVVYLNPKGDGKWCKFDDDVVSRCTKEEAIEHNYGGHDDDLSVRHCTNAYMLVYIRESKLSEVLQAVTDHDIPQQLVERLQEEKRIEAQKRKERQE", "values": [{"measurement": "ubiquitin-AMC cleavage with 1 µM hD1", "setting": "hD1 cyclic peptide", "value": "the hD1 peptide had no effect on USP7CD or CYLD activity"}]}
{"protein": "human SAGA deubiquitinating module (USP22/ATXN7L3/ENY2/ATXN7), construct lacking the Avi tag, 6xHis tag cleaved (protein) chain 1: MVSRPEPEGEAMDAELAVAPPGCSHLGSFKVDNWKQNLRAIYQCFVWSGTAEARKRKAKSCICHVCGVHLNRLHSCLYCVFFGCFTKKHIHEHAKAKRHNLAIDLMYGGIYCFLCQDYIYDKDMEIIAKEEQRKAWKMQGVGEKFSTWEPTKRELELLKHNPKRRKITSNCTIGLRGLINLGNTCFMNCIVQALTHTPLLRDFFLSDRHRCEMQSPSSCLVCEMSSLFQEFYSGHRSPHIPYKLLHLVWTHARHLAGYEQQDAHEFLIAALDVLHRHCKGDDNGKKANNPNHCNCIIDQIFTGGLQSDVTCQVCHGVSTTIDPFWDISLDLPGSSTPFWPLSPGSEGNVVNGESHVSGTTTLTDCLRRFTRPEHLGSSAKIKCSGCHSYQESTKQLTMKKLPIVACFHLKRFEHSAKLRRKITTYVSFPLELDMTPFMASSKESRMNGQYQQPTDSLNNDNKYSLFAVVNHQGTLESGHYTSFIRQHKDQWFKCDDAIITKASIKDVLDSEGYLLFYHKQFLEYE chain 2: ERAADDVRGEPRRAAAAAGGAAAAAARQQQQQQQQQQPPPPQPQRQQHPPPPPRRTRPEDGGPGAASTSAAAMATVGERRPLPSPEVMLGQSWNLWVEASKLPGKDGTELDESFKEFGKNREVMGLCREDMPIFGFCPAHDDFYLVVCN chain 3: MKMEEMSLSGLDNSKLEAIAQEIYADLVEDSCLGFCFEVHRAVKCGYFFLDDTDPDSMKDFEIVDQPGLDIFGQVFNQWKSKECVCPNCSRSIAASRFAPHLEKCLGMGRNSSRIANRRIANSNNMNKSESDQEDNDDINDNDWSYGSEKKAKKRKSDKNPNSPRRSKSLKHKNGELSNSDPFKYNNSTGISYETLGPEELRSLLTTQCGVISEHTKKMCTRSLRCPQHTDEQRRTVRIYFLGPSAVLPEVESSLDNDSFDMTDSQALISRLQWDGSSDLSPSDSGSSKTSENQGWGLGTNSSESRKTKKKKSHLSLVGTASGLGSNKKKKPKPPAPPTPSIYDDIN chain 4: MVVSKMNKDAQMRAAINQKLIETGERERLKELLRAKLIECGWKDQLKAHCKEVIKEKGLEHVTVDDLVAEITPKGRALVPDSVKKELLQRIRTFLAQHASL", "values": [{"measurement": "cleavage of nucleosomal H2B-Ub (200 nM hDUBm, 1 µM peptide)", "setting": "hD2 cyclic peptide", "value": "With the exception of hD4, all of the cyclic peptide leads were potent inhibitors of nucleosomal H2B-Ub cleavage by the human DUB module"}, {"measurement": "cleavage of nucleosomal H2B-Ub (200 nM hDUBm, 1 µM peptide)", "setting": "hD3 cyclic peptide", "value": "With the exception of hD4, all of the cyclic peptide leads were potent inhibitors of nucleosomal H2B-Ub cleavage by the human DUB module"}, {"measurement": "cleavage of nucleosomal H2B-Ub (200 nM hDUBm, 1 µM peptide)", "setting": "hL1 cyclic peptide", "value": "With the exception of hD4, all of the cyclic peptide leads were potent inhibitors of nucleosomal H2B-Ub cleavage by the human DUB module"}, {"measurement": "Ub-AMC cleavage with 1 µM hD1", "setting": "hD1 cyclic peptide", "value": "the USP22/DUB module has no detectable activity under these conditions"}, {"measurement": "cleavage of nucleosomal H2B-Ub (200 nM hDUBm, 1 µM peptide)", "setting": "hD1 cyclic peptide", "value": "With the exception of hD4, all of the cyclic peptide leads were potent inhibitors of nucleosomal H2B-Ub cleavage by the human DUB module"}, {"measurement": "Ub-AMC cleavage over a range of yD1 concentrations", "setting": "yD1 cyclic peptide", "value": "yD1 also did not inhibit the human DUBm"}, {"measurement": "cleavage of nucleosomal H2B-Ub (200 nM hDUBm, 1 µM peptide)", "setting": "hD4 cyclic peptide", "value": "also showed very weak inhibition of hDUBm on nucleosomal H2B-Ub"}, {"measurement": "cleavage of nucleosomal H2B-Ub (200 nM hDUBm, 1 µM peptide)", "setting": "hD5 cyclic peptide", "value": "With the exception of hD4, all of the cyclic peptide leads were potent inhibitors of nucleosomal H2B-Ub cleavage by the human DUB module"}]}
{"protein": "CYLD (protein) MSSGLWSQEKVTSPYWEERIFYLLLQECSVTDKQTQKLLKVPKGSIGQYIQDRSVGHSRIPSAKGKKNQIGLKILEQPHAVLFVDEKDVVEINEKFTELLLAITNCEERFSLFKNRNRLSKGLQIDVGCPVKVQLRSGEEKFPGVVRFRGPLLAERTVSGIFFGVELLEEGRGQGFTDGVYQGKQLFQCDEDCGVFVALDKLELIEDDDTALESDYAGPGDTMQVELPPLEINSRVSLKVGETIESGTVIFCDVLPGKESLGYFVGVDMDNPIGNWDGRFDGVQLCSFACVESTILLHINDIIPALSESVTQERRPPKLAFMSRGVGDKGSSSHNKPKATGSTSDPGNRNRSELFYTLNGSSVDSQPQSKSKNTWYIDEVAEDPAKSLTEISTDFDRSSPPLQPPPVNSLTTENRFHSLPFSLTKMPNTNGSIGHSPLSLSAQSVMEELNTAPVQESPPLAMPPGNSHGLEVGSLAEVKENPPFYGVIRWIGQPPGLNEVLAGLELEDECAGCTDGTFRGTRYFTCALKKALFVKLKSCRPDSRFASLQPVSNQIERCNSLAFGGYLSEVVEENTPPKMEKEGLEIMIGKKKGIQGHYNSCYLDSTLFCLFAFSSVLDTVLLRPKEKNDVEYYSETQELLRTEIVNPLRIYGYVCATKIMKLRKILEKVEAASGFTSEEKDPEEFLNILFHHILRVEPLLKIRSAGQKVQDCYFYQIFMEKNEKVGVPTIQQLLEWSFINSNLKFAEAPSCLIIQMPRFGKDFKLFKKIFPSLELNITDLLEDTPRQCRICGGLAMYECRECYDDPDISAGKIKQFCKTCNTQVHLHPKRLNHKYNPVSLPKDLPDWDWRHGCIPCQNMELFAVLCIETSHYVAFVKYGKDDSAWLFFDSMADRDGGQNGFNIPQVTPCPEVGEYLKMSLEDLHSLDSRRIQGCARRLLCDAYMCMYQSPTMSLYK", "values": [{"measurement": "ubiquitin-AMC cleavage with 1 µM hD1", "setting": "hD1 cyclic peptide", "value": "the hD1 peptide had no effect on USP7CD or CYLD activity"}]}
{"protein": "USP27x alone (DUBprofiler panel) (protein) MCKDYVYDKDIEQIAKEEQGEALKLQASTSTEVSHQQCSVPGLGEKFPTWETTKPELELLGHNPRRRRITSSFTIGLRGLINLGNTCFMNCIVQALTHTPILRDFFLSDRHRCEMPSPELCLVCEMSSLFRELYSGNPSPHVPYKLLHLVWIHARHLAGYRQQDAHEFLIAALDVLHRHCKGDDVGKAANNPNHCNCIIDQIFTGGLQSDVTCQACHGVSTTIDPCWDISLDLPGSCTSFWPMSPGRESSVNGESHIPGITTLTDCLRRFTRPEHLGSSAKIKCGSCQSYQESTKQLTMNKLPVVACFHFKRFEHSAKQRRKITTYISFPLELDMTPFMASSKESRMNGQLQLPTNSGNNENKYSLFAVVNHQGTLESGHYTSFIRHHKDQWFKCDDAVITKASIKDVLDSEGYLLFYHKQVLEHESEKVKEMNTQAY", "values": [{"measurement": "ubiquitin-rhodamine(110)-glycine cleavage with 1 µM hD1 (DUBprofiler)", "setting": "hD1 cyclic peptide", "value": "USP27x, whose activity was reduced by ˜50%"}]}
